According to article PMC6565432:

Molecular target: VAPB (endogenous, COS-7 cells) (African green monkey (endogenous in COS-7))
Experiment: proximity ligation

Substance: ACBD5 (endogenous, COS-7 cells) (natural protein)
- PLA signals per cell (PLA signals per cell): 5.6
- PLA signals per cell (single plane) (PLA signals per cell): 10.4
- PLA signals per cell (z-stack) (PLA signals per cell): 11.3
